Laboratory results: patent EP0723402B1

Molecular target: cyclin/cdk2 complexes immunoprecipitated from HeLa cell extracts by cdk2 antisera (UniProt P24941)
Assay: cell-based or functional assay

“GST-SDI-1 fusion protein (Schistosoma japonicum glutathione S-transferase amino acids 1-226, hinge Pro-Arg-Gly-Asp-Pro-Pro-Ala, SDI-1)” gave a half maximal inhibition of histone H1 kinase activity of 250 ng.
